Measurements published in patent US20140073575.

B1: Mimivirus prolyl hydroxylase L593_short (protein)
chain: MVLSKSCVSHFRNVGSLNSRDVNLKDDFSYANIDDPYNKPFVLNNLINPTKCQEIMQFANGKLFDSQVLSGTDKNIRNSQQMWISKNNPMVKPIFENICRQFNVPFDNAEDLQVVRYLPNQYYNEHHDSCCDSSKQCSEFIERGGQRILTVLIYLNNEFSDGHTYFPNLNQKFKPKTGDALVFYPLANNSNKCHPYSLHAGMPVTSGEKWIANLWFRERKFS
B2: Mimivirus prolyl hydroxylase L593_long (protein)
chain: MKTVTIITIIVVIIVVILIIMVLSKSCVSHFRNVGSLNSRDVNLKDDFSYANIDDPYNKPFVLNNLINPTKCQEIMQFANGKLFDSQVLSGTDKNIRNSQQMWISKNNPMVKPIFENICRQFNVPFDNAEDLQVVRYLPNQYYNEHHDSCCDSSKQCSEFIERGGQRILTVLIYLNNEFSDGHTYFPNLNQKFKPKTGDALVFYPLANNSNKCHPYSLHAGMPVTSGEKWIANLWFRERKFS
B3: Mimivirus lysyl hydroxylase L230 (protein)
chain: MISRTYVINLARRPDKKDRILAEFLKLKEKGVELNCVIFEAVDGNNPEHLSRFNFKIPNWTDLNSGKPMTNGEVGCALSHWSVWKDVVDCVENGTLDKDCRILVLEDDVVFLDNFMERYQTYTSEITYNCDLLYLHRKPLNPYTETKISTHIVKPNKSYWACAYVITYQCAKKFMNANYLENLIPSDEFIPIMHGCNVYGFEKLFSNCEKIDCYAVQPSLVKLTSNAFNDSETFHSGSYVPSNKFNFDTDKQFRIVYIGPTKGNSFHRFTEYCKLYLLPYKVIDEKETNDFVSLRSELQSLSEQDLNTTLMLVVSVNHNDFCNTIPCAPTNEFIDKYKQLTTDTNSIVSAVQNGTNKTMFIGWANKISEFINHYHQKLTESNAETDINLANLLLISSISSDFNCVVEDVEGNLFQLINEESDIVFSTTTSRVNNKLGKTPSVLYANSDSSVIVLNKVENYTGYGWNEYYGYHVYPVKFDVLPKIYLSIRIVKNANVTKIAETLDYPKELITVSISRSEHDSFYQADIQKFLLSGADYYFYISGDCIITRPTILKELLELNKDFVGPLMRKGTESWTNYWGDIDPSNGYYKRSFDYFDIIGRDRVGCWNVPYLASVYLIKKSVIEQVPNLFTENSHMWNGSNIDMRLCHNLRKNNVFMYLSNLRPYGHIDDSINLEVLSGVPTEVTLYDLPTRKEEWEKKYLHPEFLSHLQNFKDFDYTEICNDVYSFPLFTPAFCKEVIEVMDKANLWSKGGDSYFDPRIGGVESYPTQDTQLYEVGLDKQWHYVVFNYVAPFVRHLYNNYKTKDINLAFVVKYDMERQSELAPHHDSSTYTLNIALNEYGKEYTAGGCEFIRHKFIWQGQKVGYATIHAGKLLAYHRALPITSGKRYILVSFVN

Assays:
[1] = target: (GPP)7 acceptor peptide
[2] = target: T1, His10-tagged human collagen III construct, P02461
T1 chain: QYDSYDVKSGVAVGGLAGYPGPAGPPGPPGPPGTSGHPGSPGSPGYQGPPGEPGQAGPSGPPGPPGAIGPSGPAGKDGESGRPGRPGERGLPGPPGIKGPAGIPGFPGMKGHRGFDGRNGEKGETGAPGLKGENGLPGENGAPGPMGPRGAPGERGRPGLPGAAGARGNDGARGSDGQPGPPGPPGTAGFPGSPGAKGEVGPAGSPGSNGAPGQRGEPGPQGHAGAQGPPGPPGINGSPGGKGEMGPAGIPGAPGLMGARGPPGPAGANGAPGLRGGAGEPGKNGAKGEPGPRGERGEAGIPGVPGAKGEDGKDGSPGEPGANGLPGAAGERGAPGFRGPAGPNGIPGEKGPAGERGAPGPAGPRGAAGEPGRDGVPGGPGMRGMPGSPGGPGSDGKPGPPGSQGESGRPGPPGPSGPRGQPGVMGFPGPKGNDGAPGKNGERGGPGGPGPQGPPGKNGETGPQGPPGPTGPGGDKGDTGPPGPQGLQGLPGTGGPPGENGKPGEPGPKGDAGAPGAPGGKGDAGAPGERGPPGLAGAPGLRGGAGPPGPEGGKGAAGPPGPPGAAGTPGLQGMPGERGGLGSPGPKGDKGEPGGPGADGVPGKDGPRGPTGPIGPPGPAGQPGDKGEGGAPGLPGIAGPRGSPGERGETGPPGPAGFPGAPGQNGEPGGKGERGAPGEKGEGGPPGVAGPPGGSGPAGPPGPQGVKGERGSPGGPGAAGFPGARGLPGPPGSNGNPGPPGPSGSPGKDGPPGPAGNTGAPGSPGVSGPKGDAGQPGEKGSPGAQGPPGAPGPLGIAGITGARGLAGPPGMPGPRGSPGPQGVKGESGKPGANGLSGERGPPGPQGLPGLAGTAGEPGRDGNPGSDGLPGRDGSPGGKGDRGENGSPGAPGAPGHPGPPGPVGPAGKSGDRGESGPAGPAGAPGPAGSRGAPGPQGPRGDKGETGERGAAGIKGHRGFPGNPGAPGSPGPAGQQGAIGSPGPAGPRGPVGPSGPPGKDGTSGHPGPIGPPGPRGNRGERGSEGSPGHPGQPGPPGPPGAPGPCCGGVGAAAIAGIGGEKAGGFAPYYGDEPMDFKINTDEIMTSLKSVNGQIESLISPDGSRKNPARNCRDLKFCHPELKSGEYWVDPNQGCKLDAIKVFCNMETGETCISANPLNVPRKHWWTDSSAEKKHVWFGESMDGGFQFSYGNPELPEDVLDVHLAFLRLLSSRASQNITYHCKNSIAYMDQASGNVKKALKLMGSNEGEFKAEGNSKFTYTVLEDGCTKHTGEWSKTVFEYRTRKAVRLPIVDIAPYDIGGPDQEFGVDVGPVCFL

[3] = target: T2, (GDK)4 acceptor peptide
T2 chain: GDKGDKGDKGDK

[4] = target: T3, MimiD peptide GTKGETGLKGII
T3 chain: GTKGETGLKGII

Row | Protein | prolyl hydroxylase activity ([14C]-CO2 production from [14C]-2-oxoglutarate) [1] | hydroxyproline in collagen III after co-expression in E. coli (amino acid analysis by HPLC, tandem mass spectrometry of tryptic peptides) [2] | lysyl hydroxylase activity [3] | hydroxylysine in collagen III after co-expression in E. coli (amino acid analysis by HPLC) [2] | lysyl hydroxylase activity [4]
1 | B1 | the short form of L593 yielded prolyl hydroxylase activity in the range of 600 pmol/min/mg protein | the amino acid hydroxyproline was clearly detected in the human collagen III extract when the Mimivirus L593 protein was co-expressed | – | – | –
2 | B2 | Both short and long forms of L593 are active as prolyl hydroxylases, but the short form has a higher specific activity than the long form | – | – | – | –
3 | B3 | – | – | The lysyl hydroxylase activity was highest towards the (GDK)4 peptide and the GTKGETGLKGII peptide derived from a Mimivirus collagen sequence | A peak corresponding to hydroxylysine was detected in collagen III co-expressed with L230 but not in collagen expressed alone in E. coli | The lysyl hydroxylase activity was highest towards the (GDK)4 peptide and the GTKGETGLKGII peptide derived from a Mimivirus collagen sequence
